# Results taken from article PMC6943137, “A novel 5′-hydroxyl dinucleotide hydrolase activity for the DXO/Rai1 family of enzymes”.
# T1: DXO (mouse, UniProt O70348 1-397)
# T1 sequence: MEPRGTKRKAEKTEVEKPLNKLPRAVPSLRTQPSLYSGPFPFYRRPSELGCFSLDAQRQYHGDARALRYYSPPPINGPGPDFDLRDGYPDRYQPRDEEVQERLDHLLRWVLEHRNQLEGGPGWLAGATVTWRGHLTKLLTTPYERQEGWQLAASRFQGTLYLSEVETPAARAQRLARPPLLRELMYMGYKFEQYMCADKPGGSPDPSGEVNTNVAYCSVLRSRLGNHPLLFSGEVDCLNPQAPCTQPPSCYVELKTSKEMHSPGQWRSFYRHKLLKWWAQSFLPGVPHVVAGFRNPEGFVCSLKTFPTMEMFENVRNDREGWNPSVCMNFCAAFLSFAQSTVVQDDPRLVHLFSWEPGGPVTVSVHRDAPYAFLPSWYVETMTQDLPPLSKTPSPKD
# Target: T1, DXO
# Test: X-ray crystallography, 2.0 A; Ca2+ (one ion); RNA occupancy ~80%, no hydrolysis in crystal; Crystal structure; crystallization buffer not in the material. Nuclease assays (turnover, not listed): 10 mM Tris pH 7.5, 50 mM KOAc, 2 mM Mg(OAc)2, 2 mM MnCl2, 1 mM DTT, 0.1 mM spermine
# Settings: protein: recombinant; tags: His-tag (pET28a); single strand
binder,measurement,value
"UUUUUU (XNA, phosphorothioate backbone; 5'-hydroxyl (5'-PO4 removed by CIP)) [5'-OH U(S)6 RNA]",binding result,binds
